From patent US20120149879A1 (published 2012)
Blank lines part the entries; values can stand above or below the binder they belong to.

Experiments:
IGF-1R = target: T1, IGF-1R (UniProt P08069 31-932, limits assumed); assay: SPR (Biacore T100), antibody captured by anti-human IgG on C1 chip, IGF-1R injected, 25 C
T1 construct: Analyte in the Biacore assays; also called IGF-IR; insulin-like growth factor I receptor

EGFR-ECD [1] = target: T2, EGFR-ECD (human, UniProt P00533 25-645); assay: SPR (Biacore T100), antibody captured by anti-human IgG on C1 chip, EGFR-ECD injected, 25 C
T2 construct: extracellular domain; Analyte in the Biacore assays; also called human epidermal growth factor receptor; HER-1
Description: Capturing anti-human IgG antibody was immobilized on the surface of a C1 biosensorchip using amine-coupling chemistry. […] A reference control flow cell was treated in the same way but with vehicle buffers only instead of the capturing antibody. Surfaces were blocked with an injection of 1 M ethanolamine/HCl pH 8.5. The bispecific antibodies were diluted in HBS-P and injected at a flow rate of 5 μl/min. The contact time (association phase) was 1 min for the antibodies at a concentration between 1 and 5 nM. EGFR-ECD was injected at increasing concentrations of 1.2, 3.7, 11.1, 33.3, 100 and 300 nM, IGF-1R at concentrations of 0.37, 1.11, 3.33, 10, 30 and 90 nM. The contact time (association phase) was 3 min, the dissociation time (washing with running buffer) 5 min for both molecules at a flowrate of 30 μl/min. All interactions were performed at 25° C. (standard temperature). The regeneration solutions of 0.85% phosphoric acid and 5 mM sodium hydroxide were injected each for 60 s at 5 μl/min flow to remove any non-covalently bound protein after each binding cycle. Signals were detected at a rate of one signal per second. Samples were injected at increasing concentrations.

EGFR-ECD [2] = target: T2, EGFR-ECD; assay: SPR (Biacore T100), antibody captured by anti-human IgG on CM5 chip, EGFR-ECD injected, 25 C
Description: A reference control flow cell was treated in the same way but with vehicle buffers only instead of the capturing antibody. Surfaces were blocked with an injection of 1 M ethanolamine/HCl pH 8.5. The bispecific antibodies were diluted in HBS-P and injected at a flow rate of 5 μl/min. […] The contact time (association phase) was 3 min, the dissociation time (washing with running buffer) 5 min for both molecules at a flowrate of 30 μl/min. All interactions were performed at 25° C. (standard temperature). […] Signals were detected at a rate of one signal per second. Samples were injected at increasing concentrations.

Kd (IGF-1R): 11 nM
Kd (EGFR-ECD [1]): 0.5 nM
B1: scFab-XGFR2_2720 (bispecific antibody)
chain 1: not shown
chain 2: DIQMTQSPSSLSASVGDRVTITCRASQGINNYLNWYQQKPGKAPKRLIYNTNNLQTGVPSRFSGSGSGTEFTLTISSLQPEDFATYYCLQHNSFPTFGQGTKLEIKRTVAAPSVFIFPPSDEQLKSGTASVVCLLNNFYPREAKVQWKVDNALQSGNSQESVTEQDSKDSTYSLSSTLTLSKADYEKHKVYACEVTHQGLSSPVTKSFNRGEC

Kd (EGFR-ECD [2]): 3 nM
Kd (EGFR-ECD [1]): 0.5 nM
B2: humanized rat anti-EGFR antibody ICR62 with VH of SEQ ID NO: 8, and VL of SEQ ID NO: 10 (antibody, V domains shown)
VH: QVQLVQSGAEVKKPGSSVKVSCKASGFTFTDYKIHWVRQAPGQGLEWMGYFNPNSGYSTYAQKFQGRVTITADKSTSTAYMELSSLRSEDTAVYYCARLSPGGYYVMDAWGQGTTVTVSS
VL: DIQMTQSPSSLSASVGDRVTITCRASQGINNYLNWYQQKPGKAPKRLIYNTNNLQTGVPSRFSGSGSGTEFTLTISSLQPEDFATYYCLQHNSFPTFGQGTKLEIKR
notes: Parent monospecific 'wildtype' IgG; also called <EGFR>ICR62; <EGFR> ICR62
